# Results published in patent US20090068637A1.
# Columns and labels:
# Assay in all cases: cell-based or functional assay
# [1] = biological target: non-H5 viruses (14 strains; H1~H13, Chicken NDV)
# [2] = biological target: H5 virus strains (thirty-four strains of H5N1 viruses)
# [3] = biological target: HA of H5N1 virus strain GD1 (avian influenza virus H5N1)
# [4] = biological target: HA of H5N1 virus strain GD2 (avian influenza virus H5N1)
# [5] = biological target: HA of H5N1 virus strain GD3 (avian influenza virus H5N1)
# [6] = biological target: HA of H5N1 virus strain HN1 (avian influenza virus H5N1)
# [7] = biological target: HA of H5N1 virus strain HN2 (avian influenza virus H5N1)
# [8] = biological target: HA of H5N1 virus strain IDN1.1 (avian influenza virus H5N1)
# [9] = biological target: HA of H5N1 virus strain IDN2 (avian influenza virus H5N1)
# [10] = biological target: HA of H5N1 virus strain IDN3 (avian influenza virus H5N1)
# [11] = biological target: HA of H5N1 virus strain IDN4 (avian influenza virus H5N1)
# [12] = biological target: HA of H5N1 virus strain IDN5 (avian influenza virus H5N1)
# [13] = biological target: HA of H5N1 virus strain MB1 (avian influenza virus H5N1)
# [14] = biological target: HA of H5N1 virus strain MB2 (avian influenza virus H5N1)
# [15] = biological target: HA of H5N1 virus strain MIX1 (avian influenza virus H5N1)
# [16] = biological target: HA of H5N1 virus strain MIX2 (avian influenza virus H5N1)
# [17] = biological target: HA of H5N1 virus strain MIX3 (avian influenza virus H5N1)
# [18] = biological target: HA of H5N1 virus strain VNM2.1 (avian influenza virus H5N1)
# [19] = biological target: HA of H5N1 virus strain VTM1.1 (avian influenza virus H5N1)
# [20] = biological target: HA of H5N1 virus strain VTM2 (avian influenza virus H5N1)
# [21] = biological target: HA of H5N1 virus strain VTM3 (avian influenza virus H5N1)
# [22] = biological target: HA of H5N1 virus strain VTM4 (avian influenza virus H5N1)
# [23] = biological target: HA of H5N1 virus strain YN1 (avian influenza virus H5N1)
binder,measurement,setting,value
"monoclonal antibody 8H5 (antibody, V domains shown) VH: QVQLQQSGAELMKPGASVKISCKATGYTFSNYWIEWIKQRPGHGLEWIGEILPGSDRTNYNGKFKGKATFTADTSSNTAHMQLSSLTSEDSAVYYCANRYDGYYFGLDYWGQGTSVAVSS VL: EIVLTQSPAIMSASLGEKVTMSCRASSSVNFVYWYQQRSDASPKLLIYYSSNLAPGVPPRFSGSGSGNSYSLTISGLEGEDAATYYCQHFTSSPYTFGGGTNLEIKR",HI assay: positive number/total virus number (of 14 strains),[1],0
"monoclonal antibody 3C8 (antibody, V domains shown) VH: QIQLVQSGPELKKPGETVKISCKASGYSFTNYGMNWVKQAPGKGLKWMGWINTYTGEPAYADDFKGRFAFSLETSASTAYLQINNLKNEDTATYFCARWNRDAMDYWGQGTSVTVSS VL: DIVLTQSPASLAVSLGQRATISCRASESVDSSDNSLMHWYQQKPGQPPKLLIYRASNLESGIPARFSGSGSRTDFTLTINPVEADDVATYYCQQSIGDPPYTFGGGTKLEIKR",HI assay: positive number/total virus number (of 34 strains),[2],32
same,HI titer,[3],6400 titer
same,Neutralization titer,[3],12800 titer
same,HI titer,[4],12800 titer
same,Neutralization titer,[4],12800 titer
same,HI titer,[5],3200 titer
same,Neutralization titer,[5],200 titer
same,HI titer,[6],3200 titer
same,Neutralization titer,[6],12800 titer
same,HI titer,[7],800 titer
same,Neutralization titer,[7],6400 titer
same,HI titer,[8],3200 titer
same,Neutralization titer,[8],6400 titer
same,HI titer,[9],400 titer
same,Neutralization titer,[9],12800 titer
same,HI titer,[10],< 100 titer
same,HI titer,[11],6400 titer
same,Neutralization titer,[11],12800 titer
same,HI titer,[12],6400 titer
same,Neutralization titer,[12],6400 titer
same,HI titer,[13],400 titer
same,HI titer,[14],3200 titer
same,Neutralization titer,[14],12800 titer
same,HI titer,[15],1600 titer
same,Neutralization titer,[15],100 titer
same,HI titer,[16],800 titer
same,Neutralization titer,[16],< 100 titer
same,HI titer,[17],400 titer
same,Neutralization titer,[17],200 titer
same,HI titer,[18],< 100 titer
same,Neutralization titer,[18],< 100 titer
same,HI titer,[19],3200 titer
same,Neutralization titer,[19],1600 titer
same,HI titer,[20],1600 titer
same,Neutralization titer,[20],6400 titer
same,HI titer,[21],6400 titer
same,Neutralization titer,[21],12800 titer
same,HI titer,[22],800 titer
same,Neutralization titer,[22],12800 titer
same,HI titer,[23],1600 titer
same,HI assay: positive number/total virus number (of 14 strains),[1],0
"monoclonal antibody 4D1 (antibody, V domains shown) VH: QVQLQQPGAELVKPGASVNLSCKASGYTFTSYWMHWVKQRPGQGLEWIGEIDPSDSFTTYNQNFKDRATLTVDKSSSTAYMQLRSLTSEDSAVYYCARGGPGDFRYAMDYWGQGTSVTVSS VL: DILMTQSPSSMSVSLGDTVSITCHASQGISSNIGWLQQKPGKSFKGLIYHGTNLEDGVPSRFSGSGSGADYSLTISSLESEDFADYYCVQYVQFPYTFGGGTKLEIKR",HI assay: positive number/total virus number (of 34 strains),[2],34
same,HI titer,[3],12800 titer
same,Neutralization titer,[3],12800 titer
same,HI titer,[4],800 titer
same,Neutralization titer,[4],12800 titer
same,HI titer,[5],12800 titer
same,Neutralization titer,[5],12800 titer
same,HI titer,[6],12800 titer
same,Neutralization titer,[6],12800 titer
same,HI titer,[7],3200 titer
same,Neutralization titer,[7],12800 titer
same,HI titer,[8],12800 titer
same,Neutralization titer,[8],12800 titer
same,HI titer,[9],800 titer
same,Neutralization titer,[9],12800 titer
same,HI titer,[10],6400 titer
same,Neutralization titer,[10],12800 titer
same,HI titer,[11],12800 titer
same,Neutralization titer,[11],12800 titer
same,HI titer,[12],12800 titer
same,Neutralization titer,[12],12800 titer
same,HI titer,[13],3200 titer
same,Neutralization titer,[13],6400 titer
same,HI titer,[14],6400 titer
same,Neutralization titer,[14],12800 titer
same,HI titer,[15],12800 titer
same,Neutralization titer,[15],12800 titer
same,HI titer,[16],12800 titer
same,Neutralization titer,[16],12800 titer
same,HI titer,[17],12800 titer
same,Neutralization titer,[17],12800 titer
same,HI titer,[18],400 titer
same,Neutralization titer,[18],1600 titer
same,HI titer,[19],3200 titer
same,Neutralization titer,[19],1600 titer
same,HI titer,[20],3200 titer
same,Neutralization titer,[20],3200 titer
same,HI titer,[21],12800 titer
same,Neutralization titer,[21],12800 titer
same,HI titer,[22],400 titer
same,Neutralization titer,[22],1600 titer
same,HI titer,[23],6400 titer
same,Neutralization titer,[23],12800 titer
same,HI assay: positive number/total virus number (of 14 strains),[1],0
"monoclonal antibody 10F7 (antibody, V domains shown) VH: QVQLQQPGAELVKPGASVKLSCKASGYTFTSYWMHWVKQRPGQGLEWIGEIDPSDSYTNYNQKFKGKATLTVDKSSSTAYMQLSSLTSEDSAVYYCARGGTGDFHYAMDYWGQGTSVTVSS VL: DILMTQSPSSMSVSLGDTVSITCHASQGISSNIGWLQQKPGKSFKGLIYHGTNLEDGVPSRFSGSGSGADYSLTISSLESEDFADYYCVQYVQFPYTFGGGTKLEIKR",HI assay: positive number/total virus number (of 34 strains),[2],34
same,HI titer,[3],6400 titer
same,Neutralization titer,[3],12800 titer
same,HI titer,[4],12800 titer
same,Neutralization titer,[4],12800 titer
same,HI titer,[5],12800 titer
same,Neutralization titer,[5],12800 titer
same,HI titer,[6],12800 titer
same,Neutralization titer,[6],12800 titer
same,HI titer,[7],1600 titer
same,Neutralization titer,[7],12800 titer
same,HI titer,[8],12800 titer
same,Neutralization titer,[8],12800 titer
same,HI titer,[9],1600 titer
same,Neutralization titer,[9],12800 titer
same,HI titer,[10],1600 titer
same,Neutralization titer,[10],12800 titer
same,HI titer,[11],12800 titer
same,Neutralization titer,[11],12800 titer
same,HI titer,[12],6400 titer
same,Neutralization titer,[12],12800 titer
same,HI titer,[13],6400 titer
same,Neutralization titer,[13],12800 titer
same,HI titer,[14],12800 titer
same,Neutralization titer,[14],12800 titer
same,HI titer,[15],12800 titer
same,Neutralization titer,[15],12800 titer
same,HI titer,[16],12800 titer
same,Neutralization titer,[16],12800 titer
same,HI titer,[17],12800 titer
same,Neutralization titer,[17],12800 titer
same,HI titer,[18],3200 titer
same,Neutralization titer,[18],200 titer
same,HI titer,[19],3200 titer
same,Neutralization titer,[19],3200 titer
same,HI titer,[20],1600 titer
same,Neutralization titer,[20],3200 titer
same,HI titer,[21],12800 titer
same,Neutralization titer,[21],12800 titer
same,HI titer,[22],400 titer
same,Neutralization titer,[22],200 titer
same,HI titer,[23],3200 titer
same,Neutralization titer,[23],12800 titer
same,HI assay: positive number/total virus number (of 14 strains),[1],0
